Results taken from publication PMC7397135.

These substances were tested against recombinant heterodimer of human FCGRT/B2M (human neonatal IgG Fc receptor) (human) (UniProt P55899) (assay: electrochemical receptor sensor (amperometric I-T, time-current method); hFcγRn adsorbed in two layers on a gold nanoparticle-chitosan glassy carbon electrode with thionine and HRP as signal amplification, blocked with BSA; IgG in solution; constant voltage -0.38 V; data collected after 20 s; 8 mmol/L H2O2 in the test substrate; ultrapure water as blank; change rate of response current against IgG concentration, Ka by the double reciprocal (Lineweaver-Burk) method).

| Substance | Ka (interconnected allosteric constant) |
| --- | --- |
| Donkey IgG (antibody) | 1.14e-21 mol/L |
| Horse IgG (antibody) | 1.2e-22 mol/L |
| Human IgG (antibody) | 1.02e-23 mol/L |
| Quail IgY (antibody) | 8.61e-20 mol/L |
| Sheep IgG (antibody) | 2.17e-21 mol/L |

Now from value to substance:

| Ka (interconnected allosteric constant) | Substance |
| --- | --- |
| 1.59e-22 mol/L | Bovine IgG (antibody) |
| 2.29e-21 mol/L | Rabbit IgG (antibody) |
